Experimental data taken from US20190119406.

Target: T1, Mutant OB chain (short chain, hinge-CH2-CH3 with T394D, P395D, P396D) [IgG part: P01857]
T1 chain: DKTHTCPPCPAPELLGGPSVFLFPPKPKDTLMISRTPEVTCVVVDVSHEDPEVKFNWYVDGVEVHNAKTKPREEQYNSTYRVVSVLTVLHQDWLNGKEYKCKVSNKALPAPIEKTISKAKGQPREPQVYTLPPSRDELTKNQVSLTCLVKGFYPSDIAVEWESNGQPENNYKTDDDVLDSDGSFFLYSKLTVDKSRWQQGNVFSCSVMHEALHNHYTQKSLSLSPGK
Test: co-transfection of OA and OB in HEK293, protein A bead pull-down, SDS-PAGE (FIGS. 3, 4 and 6)

B1: Mutant OA chain (long chain, CH1-hinge-CH2-CH3 with P395K, P396K, V397K) (protein)
chain: ASTKGPSVFPLAPSSKSTSGGTAALGCLVKDYFPEPVTVSWNSGALTSGVHTFPAVLQSSGLYSLSSVVTVPSSSLGTQTYICNVNHKPSNTKVDKKVEPKSCDKTHTCPPCPAPELLGGPSVFLFPPKPKDTLMISRTPEVTCVVVDVSHEDPEVKFNWYVDGVEVHNAKTKPREEQYNSTYRVVSVLTVLHQDWLNGKEYKCKVSNKALPAPIEKTISKAKGQPREPQVYTLPPSRDELTKNQVSLTCLVKGFYPSDIAVEWESNGQPENNYKTTKKKLDSDGSFFLYSKLTVDKSRWQQGNVFSCSVMHEALHNHYTQKSLSLSPGK
Question: B1 was tested. Which yield of heterodimer did it give?
Answer: high yield of heterodimer (above 95%)
